Consider 2 substances from article PMC6981973.

In the experiment the target is transferrin receptor (TfR) (human (endogenous in Caco-2)) (UniProt P02786).
Chain of transferrin receptor (TfR) (human (endogenous in Caco-2)) (P02786 whole entry): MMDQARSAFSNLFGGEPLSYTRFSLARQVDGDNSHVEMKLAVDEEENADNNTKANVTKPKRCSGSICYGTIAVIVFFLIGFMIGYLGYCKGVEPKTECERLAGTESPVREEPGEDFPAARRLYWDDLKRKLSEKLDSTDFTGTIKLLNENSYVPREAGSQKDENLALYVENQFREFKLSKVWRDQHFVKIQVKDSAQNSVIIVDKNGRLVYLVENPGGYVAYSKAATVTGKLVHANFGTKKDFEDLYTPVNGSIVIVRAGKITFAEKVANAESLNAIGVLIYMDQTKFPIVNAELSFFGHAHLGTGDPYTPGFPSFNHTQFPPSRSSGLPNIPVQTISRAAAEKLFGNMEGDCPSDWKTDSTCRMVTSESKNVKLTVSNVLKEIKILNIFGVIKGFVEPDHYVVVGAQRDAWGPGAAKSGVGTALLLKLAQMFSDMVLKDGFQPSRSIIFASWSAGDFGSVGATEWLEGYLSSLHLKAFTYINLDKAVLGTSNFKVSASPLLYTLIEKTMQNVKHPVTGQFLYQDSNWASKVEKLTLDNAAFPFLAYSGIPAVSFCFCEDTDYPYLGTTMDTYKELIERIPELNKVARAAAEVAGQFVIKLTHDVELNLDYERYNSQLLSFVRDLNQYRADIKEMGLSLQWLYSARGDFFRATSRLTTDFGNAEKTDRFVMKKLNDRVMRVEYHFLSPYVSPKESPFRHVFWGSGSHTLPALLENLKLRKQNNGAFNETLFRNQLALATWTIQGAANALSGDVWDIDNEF

Chain of rFIX-Tf/Dithi (P02787 whole entry, looked up): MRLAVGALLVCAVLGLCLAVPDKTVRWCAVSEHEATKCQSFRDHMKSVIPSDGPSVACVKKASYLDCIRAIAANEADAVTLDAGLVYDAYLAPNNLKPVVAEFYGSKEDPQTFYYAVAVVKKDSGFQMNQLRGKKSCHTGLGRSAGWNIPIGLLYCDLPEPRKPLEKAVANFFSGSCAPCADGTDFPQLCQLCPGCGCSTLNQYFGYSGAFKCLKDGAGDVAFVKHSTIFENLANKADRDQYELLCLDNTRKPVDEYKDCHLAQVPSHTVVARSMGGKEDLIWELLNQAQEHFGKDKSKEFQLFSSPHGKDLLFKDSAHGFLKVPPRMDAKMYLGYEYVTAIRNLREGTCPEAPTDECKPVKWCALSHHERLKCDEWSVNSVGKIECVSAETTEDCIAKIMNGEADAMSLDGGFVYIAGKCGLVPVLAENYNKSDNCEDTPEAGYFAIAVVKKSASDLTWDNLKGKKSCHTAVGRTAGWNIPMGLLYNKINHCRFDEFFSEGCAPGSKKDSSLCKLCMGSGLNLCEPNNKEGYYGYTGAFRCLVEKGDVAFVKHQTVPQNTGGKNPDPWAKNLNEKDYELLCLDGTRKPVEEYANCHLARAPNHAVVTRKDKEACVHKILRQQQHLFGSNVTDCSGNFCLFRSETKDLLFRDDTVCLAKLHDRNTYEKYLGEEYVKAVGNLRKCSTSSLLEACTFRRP
Chain of rFIX-Tf/Dithi (P00740 whole entry, looked up): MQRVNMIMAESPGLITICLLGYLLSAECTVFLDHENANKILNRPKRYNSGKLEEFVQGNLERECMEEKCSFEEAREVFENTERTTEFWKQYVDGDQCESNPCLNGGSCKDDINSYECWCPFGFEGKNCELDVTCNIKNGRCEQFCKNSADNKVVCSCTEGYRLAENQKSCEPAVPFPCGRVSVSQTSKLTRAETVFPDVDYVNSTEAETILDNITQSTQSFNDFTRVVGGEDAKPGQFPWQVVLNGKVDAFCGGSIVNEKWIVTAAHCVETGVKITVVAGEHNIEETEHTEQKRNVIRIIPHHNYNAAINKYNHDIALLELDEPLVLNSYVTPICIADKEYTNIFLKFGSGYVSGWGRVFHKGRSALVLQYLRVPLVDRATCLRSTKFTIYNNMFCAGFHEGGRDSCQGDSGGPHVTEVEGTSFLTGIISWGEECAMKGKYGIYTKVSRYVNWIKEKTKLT

For “BeneFIX^®, a marketed coagulation factor IX (recombinant) product (enzyme)”, the specific (total minus nonspecific with 100-fold excess Tf) apical-to-basolateral transcytosis across Caco-2 monolayers, about 100 mIU/mL apical, 2, 4 and 6 h; protein transport rate at 6 h is 0.024%.
Turning to “rFIX-Tf/Dithi (from UniProt P00740 47-461; P02787 20-698)”, the specific apical-to-basolateral transcytosis across Caco-2 monolayers at 6 h, fold over BeneFIX is 4.4 fold and the specific apical-to-basolateral transcytosis across Caco-2 monolayers, fold over FIX-Tf (LE dipeptide linker) amounted to 1.5 fold.
